Ends that are not written are not given here. * marks the point of attachment. For = O=C*

The test system of experiment [1] is MDA-MB-468 cells. Kind of experiment: Migration of MDA-MB-468 cells in modified Boyden chamber. The format is cell-based, human. The following applies: 18 h. As to the method:
The HB2 mammary epithelial cell line, a subclone of the MTSV-1.7 cell line, originating from the laboratory of Dr. J. Taylor-Papadimitriou (11) was used. The HB2 cells were cultured in DMEM supplemented with 10% FBS, 5 U/mi penicillin, 0.5 U/ml streptomycin, 2 mM glutamine, 10 μg/ml bovine insulin and 5 μg/ml hydrocortisone. The human mammary carcinoma cell lines MCF-7 and MDA-MB-468 were cultured in DMEM supplemented with 10% FBS, 5 U/ml penicillin, 0.5 U/ml streptomycin and 2 mM glutamine. The pH-experiments were done in MEM supplemented with 10 mM Tris, 0.5% BSA, 5 U/ml penicillin, 0.5 U/ml streptomycin and 2 mM glutamine. The pH 7.4-medium was further supplemented with 4 mM sodium bicarbonate whereas the pH 6.7-medium was not. All cells were incubated at 37° C. in 95% air and 5% CO2.
(§1) Cell migration analyses were performed in a modified Boyden chamber with a polycarbonate membrane (10 μm thick with a porous diameter of 8.0 μm) separating the two chambers (Transwell®; Costar, Cambridge, Mass.). As indicated in some experiments the membranes were coated with collagen by adding collagen-I (10 μg/ml) diluted in 0.25% acetic acid to the upper chamber for 1 h at 37° C., after which it was washed three times with PBS. Each experiment was initiated by detaching the cells by Versene treatment for 10-20 min at 37° C., washed, and re-suspended as a single cell suspension in serum-free DMEM medium supplemented with 0.5% BSA. Together with the indicated agonist a 0.2 ml cell suspension (containing 25,000 MDA-MB-468 or 50,000 HB2 cells) was then added to the upper chamber of the transwell. The lower chamber was filled with 0.6 ml serum-free but BSA-containing DMEM medium supplemented with 1 ng/ml of the chemoattractant IGF-I. As a control, IGF-I was excluded in some wells in each separate experiment. The cells were allowed to migrate in the Boyden chamber for 18 h at 37° C. in a humidified atmosphere of 95% air and 5% CO2. The experiments were terminated by removing the non-migratory cells with a cotton-tipped applicator from the upper surface of the membranes. The remaining cells on the lower surface that had migrated through the membrane were stained for 20 min with 0.5% crystal violet diluted in 20% methanol/80% water. After washing the membranes the number of stained cells per membrane and well was counted in an inverted microscope. The value from each separate experiment represents the median value of three individual wells.
Peptide-induced effects on MDA-MB-468 tumour cell migration and their content of F-actin. (A) The cells were allowed to migrate for 18 h in the absence or presence of the indicated peptides (100 μM) The data in panel A are expressed as means±SEM of 8 separate experiments, each performed in triplicate. * p<0.05. (B) The cells were allowed to adhere to collagen I-coated cover glasses for 18h in the absence or presence of peptide 175 (100 μM). The cells were then stained with Alexa488-Phalloidin as described in the methods section. The illustrated micrographs are representative of 5 separate experiments.
(§2) Effects of peptide 175 modifications on its ability to induce MDA-MB-468 tumour cell adhesion and migration. (A) The cells were allowed to adhere for 60 min to collagen-I coated wells in the absence or presence of peptide 175, three stepwise N-terminal deletion variants of peptide 175 or a formylated version of the tested hexapeptide derived from peptide 175. The amounts of adhesive cells were analyzed as described in the methods and the results are given as means±SEM of 6 separate experiments. (B and C) The cells were allowed to migrate for 18 h in the absence or presence of 1 or 10 μM of peptide 175 (B) or the formylated hexapeptide (C). The data are given as means±SEM of 6 separate experiments, each performed in triplicate. * p<0.05, p<0.01.
Effects of Frz-5 receptor blocking and reduced pH on the abilities of the formylated hexapeptide and Wnt-5a to inhibit tumour cell migration. […]

In experiment [2] the test system is MDA-MB-468 cells. Kind of experiment: Adhesion of MDA-MB-468 breast cancer cells to collagen I (MTS). The following applies: 60 min. The format is cell-based, human. The procedure: The adhesion assay was carried out as previously described (12). Briefly, cells were serum-depleted for 16 h, detached with Versene and allowed to adhere as single cells to collagen I for 60 (MDA-MB-468) or 90 min (HB2) at 37° C. Non-adherent cells were removed by washing with PBS. The adherent cells were incubated with a (3-(4,5-dimethylthiazol-2-yl)-5-(3-carboxymethoxyphenyl)-2-(-4-sulfophenyl)-2H-tetrazolium, inner salt (MTS) dye reduction assay (Promega, Madison, Wis.) and absorbance was measured at 490 nm using a Fluostar microplate reader from BMG LabTechnologies (GmbH, Offenberg, Germany). In each experiment a single value was calculated based on the mean of adhesion from six separate wells after the adhesion to plastic alone had been subtracted. The CM used as a control in the adhesion assays was obtained from confluent Wnt-5a overexpressing HB2 cells (for experiments with Wnt-5a antisense HB2 cells) or Wnt-5a overexpressing MCF-7 cells (for MDA-MB-468 cells) stably transfected with a vector over-expressing Wnt5a. A collected CM was always used within three days.
Peptide-induced effects on adhesion and DDR1 phosphorylation in MDA-MB-468 breast cancer cells. (A) Western blot analysis of Wnt-5a protein expression in Wnt-5a antisense and Wnt-5a over-expressing HB2 cells in comparison to MDA-MB-468 tumour cells. The blot is representative of 9 separate experiments. (B) Peptide-induced effects on MDA-MB-468 tumour cell adhesion. The cells were allowed to adhere to collagen type I-coated wells for 60 min in the absence or presence of 100 μM of the indicated peptides or CM. The amounts of adhesive cells were analyzed as described in the methods and the results are given as means±SEM of 8 separate experiments. (C) MDA-MB-468 cell adhesion to collagen I-coated wells in the absence or presence of peptide 175 or a peptide with same amino acid sequence except for a substitution of cysteine for alanine (175Ala) or CM. The amount of adherent cells was estimated as in panel A and expressed as means±SEM of 6 separate experiments, ns=not significant, ** p<0.01 and *** p<0.001. (D) Single MDA-MB-468 cells were allowed to adhere to collagen I-coated plates for 60 min in the absence or presence of the indicated peptides (100 μM), CM or recombinant Wnt-5a (0.8 µg/ml). DDR1 immunoprecipitates were Western blotted with first an anti-phosphotyrosine Ab and then after stripping with an anti-DDR1 Ab. The blots shown are representative of 6 separate experiments.
as §2

Experiment [3] addresses T1, Frz-5 receptor (Homo sapiens, UniProt Q13467). Kind of experiment: MDA-MB-468 cell migration with Frz-5 receptor blocking Ab or control anti-Frz-2 Ab. In kind it is cell-based. Also on record: endogenous in cells; host or cells: MDA-MB-468. The following applies: Ab 5 μg/ml, 18 h. The procedure:
The peptide […], corresponding to amino acids 198-217 in the ectodomain of the human Frz-5 receptor was as previously described used to generate a Frz-5 receptor blocking Ab (13). The peptide […], corresponding to amino acids 202-220 in the ectodomain of the human Frz-2 receptor, was used to generate a control anti-Frz-2 Ab. The synthesis of the peptides (the italic letters indicate the Frz-5 and Frz-2 sequences, the cysteine was added for raising and purifying the Ab) and the production of rabbit anti-Frz-5 and anti-Frz-2 antisera were managed by AgriSera (Vännäs, Sweden; permit A69-04 from Ume(a) animal ethic committe). The antisera were affinity purified in the laboratory by coupling the respective peptide antigen to Sulfolink Sepharose over which the respective antisera was then eluted.
Cell migration analyses were performed in a modified Boyden chamber with a polycarbonate membrane (10 μm thick with a porous diameter of 8.0 μm) separating the two chambers (Transwell®; Costar, Cambridge, Mass.). As indicated in some experiments the membranes were coated with collagen by adding collagen-I (10 μg/ml) diluted in 0.25% acetic acid to the upper chamber for 1 h at 37° C., after which it was washed three times with PBS. […] After washing the membranes the number of stained cells per membrane and well was counted in an inverted microscope. […]

The target of experiment [4] is T1, Frz-5 receptor. Kind of experiment: cell-based or functional assay.
In another experiment the test system is DDR1. In words: DDR1 phosphorylation in MDA-MB-468 cells (immunoprecipitation/Western blot). In kind it is cell-based, human. The following applies: recombinant Wnt-5a 0.8 μg/ml; 60 min on collagen I. The procedure:
The phosphorylation status of DDR1 was analyzed as previously described (12), with the following modifications. After serum-depletion for 16 h, the cells were detached with Versene and then allowed to adhere to collagen I for 60 (MDA-MB-468) or 90 min (HB2) at 37° C. The experiments were terminated by lysing both adherent and non-adherent cells with a lysis buffer (50 mM Tris pH 7.4, 1% Triton-X, 5 mM EDTA, 5 mM EGTA, 50 mM NaCl, 10 μg/ml aprotinin, 2.5 mM benzamidine, 1 mM pefabloc, 1 μg/ml leupeptin and 1 mM Na3VO4). For immunoblotting an anti-DDR1 rabbit polyclonal Ab, sc-532 (Santa Cruz Biotech, Santa Cruz, Calif.) was used at a dilution of 1:10,000. The Ab recognizes DDR1b/c, which is essential because collagen only induces phosphorylation of the b or c isoforms of DDR1 in mammary epithelial cells (10).
Peptide-induced effects on adhesion and DDR1 phosphorylation in MDA-MB-468 breast cancer cells. (A) Western blot analysis of Wnt-5a protein expression in Wnt-5a antisense and Wnt-5a over-expressing HB2 cells in comparison to MDA-MB-468 tumour cells. […] The amounts of adhesive cells were analyzed as described in the methods and the results are given as means±SEM of 8 separate experiments. […] The amount of adherent cells was estimated as in panel A and expressed as means±SEM of 6 separate experiments, ns=not significant, ** p<0.01 and *** p<0.001. […]
Background: In western blotting, separated proteins are transferred to a membrane and probed.

In experiment [5] the test system is Wnt-5a antisense HB2 cells. Kind of experiment: Migration of Wnt-5a antisense HB2 cells in modified Boyden chamber. The following applies: recombinant Wnt-5a 0.4 μg/ml; 18 h. The format is cell-based, human. As to the method:
as §1
Effects of the selected and pure peptides on the ability of Wnt-5a antisense HB2 cells to adhere and migrate. (A-E) The ability of the cells to adhere to collagen type I-coated wells was analyzed as previously described for FIG. 2 in the absence or presence of different concentrations of the indicated peptide. (F) Effect of the indicated peptides on migration of Wnt-5a antisense HB2 in a transwell migration assay. The cells were allowed to migrate for 18 h in the absence or presence of 100 μM peptide or 0.4 μg/ml of recombinant Wnt5a. The data are given as means±SEM of 6-7 separate experiments, each performed in triplicate. * p<0.05 and ** p<0.01.

T1 sequence (Q13467 27-585): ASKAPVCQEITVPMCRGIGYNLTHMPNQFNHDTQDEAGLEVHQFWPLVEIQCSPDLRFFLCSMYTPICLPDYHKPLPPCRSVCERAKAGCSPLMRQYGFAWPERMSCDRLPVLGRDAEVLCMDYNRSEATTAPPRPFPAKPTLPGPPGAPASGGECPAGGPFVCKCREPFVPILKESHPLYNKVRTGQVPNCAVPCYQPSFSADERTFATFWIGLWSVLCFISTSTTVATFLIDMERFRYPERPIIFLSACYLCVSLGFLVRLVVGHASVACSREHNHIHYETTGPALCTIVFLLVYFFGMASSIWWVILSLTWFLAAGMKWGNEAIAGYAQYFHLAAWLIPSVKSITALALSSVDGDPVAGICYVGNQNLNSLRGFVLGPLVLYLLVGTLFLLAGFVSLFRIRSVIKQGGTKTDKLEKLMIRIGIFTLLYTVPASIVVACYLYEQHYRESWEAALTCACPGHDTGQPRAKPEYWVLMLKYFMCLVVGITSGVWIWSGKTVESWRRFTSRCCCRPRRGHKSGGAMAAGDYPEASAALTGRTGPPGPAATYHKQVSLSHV

With “formyl-Met-Asp-Gly-Cys-Glu-Leu (For-MDGCEL) [formylated hexapeptide]”, in the experiment with MDA-MB-468 cells [1] (10 μM), the “inhibition of migration at pH 6.7 versus pH 7.4” value is reported as “as effective in inhibiting MDA-MB-468 cell migration at pH 6.7 as at pH 7.4” and the “motility (migration)” value is recorded as “significantly impaired the motility”. For the same molecule, the “minimal concentration that had a significant effect on migration” value in the experiment with MDA-MB-468 cells [1] turned out to be 10 µM. For the same molecule, the “adhesion to collagen I, N-terminal deletion variants and formylation of peptide 175” value in the experiment on MDA-MB-468 cells [2] is “restored, and possibly even potentiated its effect on adhesion”. Besides, the “effect on migration in presence of anti-Frz-5 or anti-Frz-2 Ab” value with Frz-5 receptor [3] (formylated hexapeptide 100 μM) is given as “mediated via the Frz-5 receptor”.

With formylated tripeptide fMet-Leu-Phe, the MDA-MB-468 cell adhesion to collagen I with Frz-5 receptor [4] amounted to 15.7.

B1: recombinant Wnt-5a: recombinant mouse Wnt-5a (R&D Systems) (protein)
chain: IIGAQPLCSQLAGLSQGQKKLCHLYQDHMQYIGEGAKTGIKECQYQFRHRRWNCSTVDNTSVFGRVMQIGSRETAFTYAVSAAGVVNAMSRACREGELSTCGCSRAARPKDLPRDWLWGGCGDNIDYGYRFAKEFVDARERERIHAKGSYESARILMNLHNNEAGRRTVYNLADVACKCHGVSGSCSLKTCWLQLADFRKVGDALKEKYDSAAAMRLNSRGKLVQVNSRFNSPTTQDLVYIDPSPDYCVRNESTGSLGTQGRLCNKTSEGMDGCELMCCGRGYDQFKTVQTERCHCKFHWCCYVKCKKCTEIVDQFVCK
modifications: left off: small tags and cut ends
As to B1, the “level of DDR1 phosphorylation” value with DDR1 is listed as “neither the pure peptides, CM nor recombinant Wnt-5a were able to further increase”. Moreover, in the experiment with Frz-5 receptor [3] (recombinant Wnt-5a 0.4 μg/ml), the “decrease in migration in presence of anti-Frz-5 or anti-Frz-2 Ab” value is “mediated via the Frz-5 receptor”. Besides, in experiment [5], the migration result was “effectively decreased the migration”.

The values above are taken from US20080207521A1, “PEPTIDE LIGAND TO IMPAIR CANCER CELL MIGRATION” (priority 2005, published 2008).
